For assay [1], the target named is T1, GPIIb-IIIa (Homo sapiens, UniProt P05106+P08514).
T1 construct: GPIIb-IIIa from platelet lysates is purified by the following procedure; from tissue
As to the kind of experiment: Competition assay: biotinylated Fn binding to purified GPIIb-IIIa in presence of synthetic polypeptides. Conditions: 250 μM polypeptide, 10 nM biotinylated Fn; FIG. 9.
Protocol: (SEQ ID NO 11) as shown by the line with closed squares. […] The competition assays were performed in microtiter wells of a 96-well plate as described in Example 9b(1). Briefly, microtiter wells coated with purified GPIIb-IIIa receptor were maintained with 10 nM biotinylated Fn for 2 hours at room temperature in the presence of varying concentrations of D-11-T and RGDS.
The competition assay was performed by first admixing into individual wells of a 96 well microtiter plate (Immunlon, Dynatech) 10 μg/ml of purified GPIIb-IIIa, prepared in Example 1, diluted in HEPES-saline buffer, pH 7.4, consisting of 10 mM HEPES, 150 mM NaCl, 1 mM CaCl2 and 1 mM MgCl2. […]
The Fn-peptide admixtures were maintained in GPIIb-IIIa-coated wells for 2 hours at room temperature to allow the biotinylated Fn to bind to the receptor. Following this maintenance period, the reacted wells were washed as described above and the amount of biotinylated Fn bound to GPIIb-IIIa was determined by admixing 0.1 ml avidin bound to biotinylated horseradish peroxidase H (Hrp) (Sigma, St. Louis, Mo.) at a 1:2000 dilution to form an avidin-biotinylated Fn admixture. […] After maintaining the color developing-reaction admixture for 10 minutes at 20° C., the reaction was stopped with the admixture of 2N H2 SO4, and the stopped reactions were measured for absorbance as described in Example 3a. […]

Assay [2] concerns the target T1, GPIIb-IIIa. As to the kind of experiment: Interaction of 125I-labelled ligands with GPIIb-IIIa coated microtiter wells (Table 3). The class given is binding. Conditions: 125I-labelled ligand. The protocol: Incubate the GPIIb-IIIa with plate for 1 hour at room temperature, then dump unbound and block with 150 ul of 5% BSA in the same buffer for 1 hour at room temperature. Wash three times with 150 μl of Tyrode's buffer with 5 mM HEPES, 1 mM MgCl2 1 mg/ml dextrose, 1 mg/ml BSA. Add 50 μl of ^125 I fusion protein (125 mg/ml) at varied concentration (4×10^-7 to 1×10^-10 M). Incubate 4 hours to overnight at room temperature (with lead shield).
Carefully remove radioactive samples and wash 3 times with 150 μl Tyrodes with 5 mM HEPES, 1 mM MgCl2, 1 mg/ml dextrose, 1 mg/ml BSA. Count with a Gamma Counter and elute by boiling in SDS-PAGE loading Buffer.
To determine if the insert coded polypeptide containing fibronectin residues 1255-1456 bound GPIIb-IIIa, the capacity of microtiter wells coated with purified GPIIb-IIIa to bind the radiolabelled fusion-protein preparation was ascertained (Table 3). In addition, the radiolabelled material bound to the insolubilized GPIIb-IIIa was recovered and analyzed by SDS-PAGE followed by radioautography. […] The isolated protein products were a mixture of insert coded polypeptides containing fusion protein and maltose binding protein breakdown products. only those bands containing the insert-coded polypeptide bound to the insolubilized GPIIb-IIIa and that binding was inhibitable by either EDTA or the monoclonal antibody FnI-16.

Assay [3] has as its target GPIIb-IIIa (Homo sapiens (Human)) (UniProt P08514). As to the kind of experiment: 125I-labelled ligand on GPIIb-IIIa-coated wells; no inhibitor.
Assay [4] has the same target. As to the kind of experiment: 10 nM biotinylated Fn on GPIIb-IIIa-coated wells, avidin-HRP detection.
Assay [5] shares this target. As to the kind of experiment: 125I-labelled ligand on GPIIb-IIIa-coated wells; inhibitor Mab 16.12.
For assay [6] the target is unchanged. As to the kind of experiment: 125I-labelled ligand on GPIIb-IIIa-coated wells; inhibitor 2 mM GDTA (so in the source).
Assay [7] shares this target. As to the kind of experiment: competition with 10 nM biotinylated Fn on GPIIb-IIIa-coated wells.

Residues, ends and D or L forms follow the SMILES beside them.

We go through four compounds from patent US5773574A, “Polypeptides for promoting cell attachment” (The Scripps Research Institute, priority 1991, dated 1998).

As for `CC[C@H](C)[C@H](NC(=O)[C@H](CO)NC(=O)[C@H](CC(N)=O)NC(=O)[C@H](CCCNC(=N)N)NC(=O)[C@H](CO)NC(=O)[C@H](Cc1c[nH]cn1)NC(=O)[C@@H]1CCCN1C(=O)[C@@H](NC(=O)[C@H](CCCNC(=N)N)NC(=O)[C@@H](N)CC(=O)O)C(C)C)C(=O)N[C@H](C(=O)O)[C@@H](C)O` [D-11-T] (H-DRVPHSRNSIT-OH), the “inhibition of binding of biotinylated Fn to GPIIb-IIIa” value on GPIIb-IIIa [1] was “greater than 80%”.
On to “Fibronectin: intact Fn isolated from fresh human citrated plasma on gelatin-sepharose”, for which the “Counts ×10^-3” value with GPIIb-IIIa [2] (inhibitor 2 mM EDTA) turned out to be 8 Counts ×10^-3; in the assay with GPIIb-IIIa [2] (inhibitor Mab 16.12) it was 12 Counts ×10^-3; in the assay with GPIIb-IIIa [2] (no inhibitor) it was 42 Counts ×10^-3.
For the compound “fibronectin (Fn), intact, isolated from fresh human citrated plasma (from UniProt P02751) (ligand)”, the Counts ×10^-3 (counts ×10^-3) in assay [3] was 42; in assay [5], 12; in assay [6], 8. The compound further came in with an absorbance at 490 nm (absorbance at 490 nm) in assay [4] of 2.7.
On to polypeptide DRVPHSR, for which, in assay [7], the percent inhibition of control binding at 200 µM polypeptide was in the range of 35 to 40%.
